The source of these data is PMC10933270, “The eukaryotic-like characteristics of small GTPase, roadblock and TRAPPC3 proteins from Asgard archaea” (Communications Biology, 2024).

For test [1], the target named is Thor-RB, predicted roadblock (RB) protein from Thor SMTZ1-45 (Candidatus Thorarchaeota archaeon SMTZ1-45). Briefly: crystal structure; Thor-RB crystals in 100 mM sodium acetate trihydrate, pH 5.0, 200 mM LiCl, 16% wt/vol PEG 6000, 20 °C; molecular replacement with MglB (PDB 3T1S).
Test [2] concerns the target MKD1-RB, roadblock (RB) protein from Loki MKD1 (Candidatus Prometheoarchaeum syntrophicum strain MK-D1). Put plainly: crystal structure; MKD1-RB crystals in 100 mM MES, pH 6.0, 250 mM zinc acetate dihydrate, 6% wt/vol PEG 3000, 20 °C; solved using the Thor-RB structure.
Test [3] deals with T1, Thor-Rab (Candidatus Thorarchaeota archaeon SMTZ1-45, UniProt A0A135VL07).
T1 construct: codon-optimized gene in pSY5, N-terminal His8 tag removed by HRV 3C; E. coli expression; naturally lacks the C-terminal cysteine extension; two molecules in the asymmetric unit
T1 sequence (A0A135VL07 1-182): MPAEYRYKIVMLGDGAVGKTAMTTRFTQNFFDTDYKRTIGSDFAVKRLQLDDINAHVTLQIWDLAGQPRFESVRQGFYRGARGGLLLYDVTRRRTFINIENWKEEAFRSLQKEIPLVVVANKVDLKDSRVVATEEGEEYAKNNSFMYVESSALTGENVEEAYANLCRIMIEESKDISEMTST
Briefly: X-ray crystallography, co-crystal without Mg2+ ([…] Å) and soak with Mg2+ ([…] Å). As to conditions: co-crystal 10 mM GTPγS, one copy mixed GDP/GTPγS, second copy full GTPγS; soak of GDP crystal with GTPγS and MgCl2; pH 5.5; nucleotide-binding site.

Test [4] deals with Odin-RBLC7, truncated roadblock (RBLC7) protein from Odin LCB_4 (Odinarchaeota LCB_4). Briefly: crystal structure; Odin-RBLC7 crystals in 200 mM MgSO4, 20% PEG 4000, 10% glycerol, 20 °C; molecular replacement with dynein DLRB1 (PDB 3L7H).
Test [5] addresses T1, Thor-Rab. Put plainly: phosphate release assay (EnzChek), GTP hydrolysis. It is filed as biochemical. As to conditions: 1 mM GTP, 2 mM MgCl2, 20 mM HEPES pH 7.5, 150 mM NaCl, 25 °C, 2 h; no GAP or GEF; heat-denatured control.
Test [6] addresses T2, Rab11B (Homo sapiens, UniProt Q15907).
T2 construct: codon-optimized gene in pSY5, N-terminal His8 tag with HRV 3C site (tag removed); E. coli expression
T2 sequence (Q15907 1-218): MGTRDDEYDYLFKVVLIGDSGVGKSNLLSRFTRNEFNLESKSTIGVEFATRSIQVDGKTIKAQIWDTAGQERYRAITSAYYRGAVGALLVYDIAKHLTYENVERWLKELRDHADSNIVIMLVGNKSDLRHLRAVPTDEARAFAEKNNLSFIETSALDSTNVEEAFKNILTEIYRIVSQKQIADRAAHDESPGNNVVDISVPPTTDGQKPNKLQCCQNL
Put plainly: phosphate release assay (EnzChek), GTP hydrolysis. It is filed as biochemical. Particulars: 1 mM GTP, 2 mM MgCl2, 20 mM HEPES pH 7.5, 150 mM NaCl, 25 °C, 2 h; no GAP or GEF; heat-denatured control.

In test [7] the target is SMTZ1-45 Thor-TRAPPC3, TRAPPC3-like protein from Thor SMTZ1-45 (Candidatus Thorarchaeota archaeon SMTZ1-45). Put plainly: crystal structure; Thor-TRAPPC3 crystals in 100 mM HEPES, pH 7.5, 250 mM magnesium formate-dihydrate, 18% wt/vol PEG3350, 20 °C; molecular replacement with the AB25 Thor-TRAPPC3 model (7YH2).

With “Thor-RB, predicted roadblock (RB) protein from Thor SMTZ1-45 (natural protein)”, the stoichiometry N (usually a count of units in the complex or per binding partner) in test [1] is 2.

For “MKD1-RB, roadblock (RB) protein from Loki MKD1 (natural protein)”, in test [2], the stoichiometry N is 2.

With `Nc1nc2c(ncn2[C@@H]2O[C@H](COP(=O)(O)OP(=O)(O)OP(O)(O)=S)[C@@H](O)[C@H]2O)c(=O)[nH]1` [GTP-γS], in test [3], the “X-ray crystallography, co-crystal without Mg2+ (1.75 Å) and soak with Mg2+ (1.95)” value is recorded as “full occupancy for GTP-γS in the second copy”.

On to “Odin-RBLC7, truncated roadblock (RBLC7) protein from Odin LCB_4 (natural protein)”, for which, in test [4], the stoichiometry N turned out to be 2.

With `Nc1nc2c(ncn2[C@@H]2O[C@H](COP(=O)(O)OP(=O)(O)OP(=O)(O)O)[C@@H](O)[C@H]2O)c(=O)[nH]1` [GTP], the “phosphate release assay (EnzChek), GTP hydrolysis” value in test [5] is “SMTZ1-45 Thor-Rab generated similar levels of phosphate in comparison to human Rab11B”; in test [6], “The GTPase activity of human Rab11B and SMTZ1-45 Thor-Rab were measured”.

In turn, “SMTZ1-45 Thor-TRAPPC3, TRAPPC3-like protein from Thor SMTZ1-45 (natural protein)” came in with a stoichiometry N in test [7] of 2.
